The data set can be described thus: label from the status in PepcDB records.
On to “YLGPQGTFTHQAAVNAAQELARFEPQGFDLMPMDDVPQILDAAQHGDGWGIVAWENNVEGYVVPNLDALIDAKDLVGFARVGVNVEFDAYVAQGADPAEARIATAHPHGLAQCKRFIAEHRLSTQPATSNAAACRDLIPGEIAFGPAICGELYDITRIGTAIQDYQGAATDFLVLSPRAE”, for which the protein production entry is on record as “failed”.

Turning to “YLKLVRIYTKPKGQLPDYTSPVVLPYSRTTVEDFCMKIHKNLIKEFKYALVWGLSVKHNPQKVGKDHTLEDEDVIQIVKK”, the protein production entry is listed as “not failed”.

In the case of “YLSPMAHWLMPVAGGPNIEKMLNLLPALFSLYPEENNPQLLISKVYLPRQSQRYDPFYDLKNLAERWSEQLQRPIIPIPVCSTSIADALSDLAEMRECAAIVLGASREGLLKNVIHGNLPTQIASQTNTTVFIFRGPVDSPNEEAIVPPLAPDFGLDE”, the protein production entry is recorded as “failed”.

Consider “YNPWRNPEGALKRRNTVLNNMLVMGYLSQSQYDEEVARPLGVVSKPTLGPAKFPDFLDIVRRQLRAEYQESDLTNQGL”, for which the protein production result is listed as “failed”.

In the case of “YRALFEHAIDGIFIMDAEGHYLDVNPAICSAIGYTRDEFLALDWGVLSRGVDSGWAAASLARIVGGEPLREERTVWTRNGDQLTVELSAHLLPDGKILGIARDVS”, the protein production entry was “not failed”.

“YTCSFVGHFSAGKSTLINLLIEQDILPSSPVPTTSNTAIVSVSDNHDIIANLPNQTYAKLSNYDEVREMNRQNVDVESVEINFQSAKFENGFTLQDTPGVDSNVASHQSITEQYMYTSNMIFYTVDYNHVQSELNFKFMKHINDVGIPVVFIINQIDKHQDDELS”: the protein production entry is given as “failed”.

Consider “YTDESGLSELVNAAGEKLQDLELMGQKNAVRDFFKELIADSGKVAYGESQVRANLEINSVDVLLLSEDLRAERVTTKCSVCGYENKWTRRWKPGEPAPAAGNCPKCGSSLEVTDVTDIVDEFSELADKSNAKVVFVSTDFDEGSQLMNAFGGIAAILRYNTGV”, for which the protein production result was “not failed”.

Regarding “YTEQPIDLVPTQPLPNASFDNFKLTCSNTKFADDLNQMTGFTKPASRELSVTFFPDLNGDVVAIDYRHYSASFKKGAKLLHKPIVWHINQATTKTTFKPNTWCLRCLWSTKPVDT”, the protein production entry is “not failed”.

As for “YTPMSDLGQQGLFDITRTLLQQPDLASLSEALSQLVKRSALADSAGIVLWQAQSQRAQYYATRENGRPVEYEDETVLAHGPVRRILSRPDALHCNFHEFTETWPQLAASGLYPEFGHCCLLPLAAEGRIFGGCEFIRQEDR”, the protein production result was “failed”.

In the case of “YVTSQIHAKGSDLAKLMQIAALKGNEEVLDVATGGGHVANAFAPFVKKVVAFDLTEDILKVARAFIEGNGHQQVEYVQGDAEQLPFTDERFHIVTCRIAAHHFPNPASFVSEAYRVLKKGGQLLLVDNSAPENDAFDVFYNYVEKERDYSHHRAWKKSDWLKMLEEAGFELEELHCFHKTFIFEDWCDRMNVTTEKKQELSDFIKSKPTEYYQKFKIVVEDGRVYSFRGESILMKARKPTVKNKGSS”, the protein production entry is “not failed”.

These data come from a protein production outcome set (Wang et al. 2014).
